Consider 5 molecules from patent US20030186853A1, “Novel corticotropin-releasing hormone analogs” (The Regents of the University of California, Office of …, published 2003).

For assay [1], the target named is T1, CRH1 receptor (mouse, UniProt P35347).
Assay [2] concerns the target T1, CRH1 receptor. As to the kind of experiment: cell-based or functional assay.

Where two headings read alike, the source gives them in different places. Non-standard residues stand in square brackets, D forms with d. No end group written: not given here.

Regarding “acetyl-cyclo(30-33)[D-Phe^12, Nle^18, D-Glu^20, Nle^21, Glu^30, D-Ala^32]-urotensin I(4-41) (peptide)”, the EC50, inhibition of proliferation of Cloudman melanoma cells (cell count) in assay [1] is 0.36 picomolar.

On to SEEPPISLDLTFHLLREVL[dE]MARAEQLAQQAHSNRKLMEII-NH2 [[D-Glu^20]-CRH], for which the “EC50, inhibition of proliferation of Cloudman melanoma cells (cell count)” value (from here on “EC50, inhibition”) in assay [2] turned out to be 16 picomolar.

Turning to DNPSLSIDLTFHLLRTLLELARTQSQRERAEQNRIIFDSV-NH2 (ligand) [Urocortin (human)], in assay [2], the “EC50, inhibition” value came out at 9.5 picomolar. Regarding SEEP[dP]ISLDLTFHLLREVLEMARAEQLAQQAHSNRKLMEII-NH2 [[D-Pro^5]-CRH], the “EC50, inhibition” value in assay [2] worked out at 82 picomolar. For SEEPPISLDLTFHLLREVLEMARAEQLAQQAHSNRKLMEII-NH2 (ligand) [Corticotropin-releasing hormone (CRH), human/rat], the “EC50, inhibition” value in assay [2] turned out to be 8.6 picomolar.
